Reference: doi:10.1101/2025.08.04.668577

How the values were obtained:
[1] = target: E2 ectodomain of HCV strain 1a142 (hepatitis C virus (genotype 1a, strain 1a142)); experiment: ELISA
[2] = target: E2 ectodomain of HCV strain 1a116 (hepatitis C virus (genotype 1a, strain 1a116))

B1: HEPC108 IgG (antibody, V domains shown)
VH: QVQLVQSGAEVKKPGSSVKVSCKASGDTFSSSAISWVRQAPGQGLEWMGGSIPIFGATKYAQKFQGRVTITTDKSTSTAYMELSSLRFEDTAVYYCARASIVNISGFVRFRFDSWGQGTLVTVSS
VL: DIQMTQSPSSLSASVGDRVTITCQASQDISNYLNWYQQKPGKAPKLLIYDVSNLEIGVPSRFSGSGSGTEFTLTINSLQPEDLATYFCQHYDDVPPVYTFGQGTSLEIK
fold weaker binding than HEPC74 and AR3C (ELISA) [1]: 1.5 fold
HCVpp neutralization IC50 (1a116 HCVpp, Huh7 cells) [2]: 0.12 µg/mL
